Seven molecules from publication PMC8215294 can be followed below.

Numbering of substitutions follows the chain as printed. Names and notes keep the numbering of the source. Values joined by “and” are separate entries in the source; they are usually repeats but may differ in a detail not shown here. Equal values may be shown once.

The subject of series [1] is Q94AM1. As to the kind of experiment: SEC; purified His-tagged TOPs treated 30 min at RT with DTTred, DTTox, GSH or GSSG, purified again and dialysed; XBridge BEH200A SEC column, 50 mM sodium phosphate, 150 mM NaCl, 0.02% NaN3, pH 7.0.
The target of series [2] is Arabidopsis thaliana thimet oligopeptidase TOP1, full-length (A. thaliana) (UniProt Q94AM1). The description is as above.
The target of series [3] is T1, TOP1^C548A, Q94AM1.
T1 chain: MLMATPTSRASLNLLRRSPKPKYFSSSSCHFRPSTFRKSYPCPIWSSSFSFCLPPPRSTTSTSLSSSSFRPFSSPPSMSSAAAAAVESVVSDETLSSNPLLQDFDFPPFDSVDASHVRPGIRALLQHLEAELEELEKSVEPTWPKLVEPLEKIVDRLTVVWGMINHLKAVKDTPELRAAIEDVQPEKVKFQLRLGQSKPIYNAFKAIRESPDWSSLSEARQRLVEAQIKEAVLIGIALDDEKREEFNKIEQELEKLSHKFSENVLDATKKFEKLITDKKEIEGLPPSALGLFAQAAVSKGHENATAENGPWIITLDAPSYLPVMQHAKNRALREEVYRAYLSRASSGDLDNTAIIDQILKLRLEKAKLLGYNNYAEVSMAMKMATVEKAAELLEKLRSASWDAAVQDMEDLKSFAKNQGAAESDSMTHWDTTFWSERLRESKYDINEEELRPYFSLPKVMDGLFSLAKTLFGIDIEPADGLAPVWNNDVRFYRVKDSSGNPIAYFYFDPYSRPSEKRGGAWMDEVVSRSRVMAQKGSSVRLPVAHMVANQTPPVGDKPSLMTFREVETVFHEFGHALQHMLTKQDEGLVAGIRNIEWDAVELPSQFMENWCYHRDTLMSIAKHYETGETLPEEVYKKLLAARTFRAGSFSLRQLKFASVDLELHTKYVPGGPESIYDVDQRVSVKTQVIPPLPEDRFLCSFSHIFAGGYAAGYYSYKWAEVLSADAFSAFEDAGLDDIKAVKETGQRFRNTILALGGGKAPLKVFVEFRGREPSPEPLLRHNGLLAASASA
As to the kind of experiment: size-exclusion chromatography (SEC), peak area quantification. Particulars: chain shown with the change; treatment (Ctrl or GSSG) not stated for this panel; parent: est. 38; read off a plot. A general note: Size exclusion chromatography separates by hydrodynamic size, large species first.

Series [4] has as its target T2, TOP1^C699A, Q94AM1.
T2 chain: T1 chain with A548C, C699A
The series is described as above. Particulars: chain shown with the change; treatment (Ctrl or GSSG) not stated for this panel; parent: est. 38; read off a plot.

In series [5] the target is T3, TOP1^C42A, Q94AM1.
T3 chain: T1 chain with C42A, A548C
The series is described as above. Particulars: chain shown with the change; treatment (Ctrl or GSSG) not stated for this panel; parent: est. 38; read off a plot.

In series [6] the target is T4, TOP1^C611A, Q94AM1.
T4 chain: T1 chain with A548C, C611A
The series is described as above. The conditions noted are these: chain shown with the change; treatment (Ctrl or GSSG) not stated for this panel; parent: est. 38; read off a plot.

For series [7], the target named is T5, TOP1^C29A, Q94AM1.
T5 chain: T1 chain with C29A, A548C
The description is as above. The conditions noted are these: chain shown with the change; treatment (Ctrl or GSSG) not stated for this panel; parent: est. 38; read off a plot.

Turning to “Arabidopsis thaliana thimet oligopeptidase TOP1, full-length”, in series [1], the “monomer/dimer ratio (SEC peak area) after DTTred or DTTox” value is “∼7/1 under both conditions”; the “monomer/dimer ratio (SEC peak area) after GSH” value is 3/1 and 2/1 post-GSH and -GSSG, respectively; the “monomer/dimer ratio (SEC peak area) after GSSG” value is 3/1 and 2/1 post-GSH and -GSSG, respectively. In the case of “Arabidopsis thaliana thimet oligopeptidase TOP1, full-length (from UniProt Q94AM1 83-791) (enzyme)”, the stoichiometry N (in general, a count of units in the complex or per binding partner) in series [2] was 2 and 3.

B1: Arabidopsis thaliana thimet oligopeptidase TOP1, full-length, Q94AM1 C548A (protein)
chain: T1 chain
As to B1, the other: percent dimer in series [3] amounted to 18%.

B2: Arabidopsis thaliana thimet oligopeptidase TOP1, full-length, Q94AM1 C699A (protein)
chain: T1 chain with A548C, C699A
For the molecule B2, the other: percent dimer in series [4] came to 17%.

B3: Arabidopsis thaliana thimet oligopeptidase TOP1, full-length, Q94AM1 C42A (protein)
chain: T1 chain with C42A, A548C
For B3, in series [5], the other: percent dimer is 12%.

B4: Arabidopsis thaliana thimet oligopeptidase TOP1, full-length, Q94AM1 C611A (protein)
chain: T1 chain with A548C, C611A
Take B4: the other: percent dimer in series [6] was found to be 3.5%.

B5: Arabidopsis thaliana thimet oligopeptidase TOP1, full-length, Q94AM1 C29A (protein)
chain: T1 chain with C29A, A548C
Regarding B5, the other: percent dimer in series [7] was 2.5%.
